Source: paper PMC10397247

How the values were obtained:
Test in all cases: two-hybrid library CCNG1;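 note: natural log of median RNA to DNA barcode read ratio; higher means stronger binding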
P4bH1 = target: T1, P4bH1
T1 chain: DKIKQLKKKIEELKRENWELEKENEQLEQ

P3bH1 = target: T2, P3bH1
T2 chain: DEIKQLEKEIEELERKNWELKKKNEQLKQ

P9bH1 = target: T3, P9bH1
T3 chain: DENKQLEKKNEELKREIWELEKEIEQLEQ

P6bH1 = target: T4, P6bH1
T4 chain: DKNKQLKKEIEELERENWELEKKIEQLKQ

P7bH1 = target: T5, P7bH1
T5 chain: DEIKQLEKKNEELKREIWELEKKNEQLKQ

P8bH1 = target: T6, P8bH1
T6 chain: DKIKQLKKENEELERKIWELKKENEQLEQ

P5bH1 = target: T7, P5bH1
T7 chain: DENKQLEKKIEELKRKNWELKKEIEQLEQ

P2bH1 = target: T8, P2bH1
T8 chain: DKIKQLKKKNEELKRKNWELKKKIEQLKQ

B1: P2bH1 (peptide)
chain: DKIKQLKKKNEELKRKNWELKKKIEQLKQ
interaction score (P4bH1): -0.137
interaction score (P3bH1): -0.234
interaction score (P9bH1): 0.693
interaction score (P6bH1): -1.16
interaction score (P7bH1): 0.231
interaction score (P8bH1): -0.331
interaction score (P5bH1): -0.796
interaction score (P2bH1): -0.432
